Results on 3 molecules are retold here after article PMC8413462, “Eukaryotic Box C/D methylation machinery has two non-symmetric protein assembly sites” (Scientific Reports, 2021).

To fix the notation:
B1: Nop5 from Pyrococcus furiosus (natural protein, P. furiosus, UniProt Q8U4M1 1-402, looked up)
chain: MKAFISENVRGIYAFDENGNLIEKRYFTDKPEKVLDQLLKGEITKDLEELLNSLKEKGYDEFVFEHPELSRRAKELGFSATTEFPNIAGERLRSNPEEFLGENWFEEYYKVGVALTRMRIQEQSGARDKMVIQAIEALDDVDKVINLLVARLREWYSLHFPELDELLPKHPQYVAFVKTVGHRDNINEEVLRELGLSEEKIKKILEAKEKTMGAWMDQTDIEVVRQLAEEIDRLYQLRKKLEDYIDRAMDDVAPNLKALVGAKLAARLISLAGGLRELAMMPSSTIQVLGAEKALFRHLRTGAKPPKHGVIYQYPAINRSPWWQRGKIARALAGKLAIAARVDYFSGEYIAEELKKELEARIREIKEKYPKPPKRKREERKGKKPWKKDKKKKKKKEKPRRR
notes: Nop5, Pyrococcus furiosus, full-length gene amplified from genomic DNA, UniProtKB Q8U4M1; Cloned into pET-M11 with a TEV-cleavable N-terminal His6-Tag; also called Nop5_(2) (homodimer); source: E. coli BL21(DE3), purified (heat step at 80 °C, HisTrap, TEV cleavage, reverse HisTrap); not shown: His6, N-terminal, cleaved

Data set [1] deals with the molecule itself. The data set is described as follows: SEC; Nop5 and fibrillarin mixed 1:1.1, 15 min at 80 °C, cooled to room temperature; Superdex S200 Increase 10/300 GL; 20 mM sodium phosphate, 500 mM NaCl, pH 6.6. For orientation: Size exclusion chromatography separates by hydrodynamic size, large species first.
For data set [2], the target named is T1, Nop5_(2)–Fib2 complex from Pyrococcus furiosus (P. furiosus, UniProt Q8U4M1 1-402; Q8U4M2 1-227).
T1 construct: Nop5, Pyrococcus furiosus, full-length, UniProtKB Q8U4M1; fibrillarin, Pyrococcus furiosus, full-length, UniProtKB Q8U4M2; Formed beforehand and then mixed with Snu13 and guide RNA (1:2:1); also called Nop5_(2)–Fib2 tetramer; source: E. coli BL21(DE3), each protein purified; mixed 1:1.1, 15 min at 80 °C, complex purified by size-exclusion chromatography; not shown: His6, N-terminal, cleaved; …
T1 sequence (looked up) 1: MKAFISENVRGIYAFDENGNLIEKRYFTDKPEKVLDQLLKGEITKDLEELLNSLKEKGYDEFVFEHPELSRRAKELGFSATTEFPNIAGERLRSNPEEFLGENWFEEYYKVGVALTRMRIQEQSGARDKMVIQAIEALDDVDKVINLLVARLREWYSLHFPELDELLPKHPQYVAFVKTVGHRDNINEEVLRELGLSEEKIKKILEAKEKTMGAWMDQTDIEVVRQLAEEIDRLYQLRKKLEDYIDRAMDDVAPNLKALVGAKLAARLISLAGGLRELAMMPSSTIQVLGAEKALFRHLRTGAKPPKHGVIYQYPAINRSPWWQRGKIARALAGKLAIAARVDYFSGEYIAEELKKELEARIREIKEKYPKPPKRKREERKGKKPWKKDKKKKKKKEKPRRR
T1 sequence (looked up) 2: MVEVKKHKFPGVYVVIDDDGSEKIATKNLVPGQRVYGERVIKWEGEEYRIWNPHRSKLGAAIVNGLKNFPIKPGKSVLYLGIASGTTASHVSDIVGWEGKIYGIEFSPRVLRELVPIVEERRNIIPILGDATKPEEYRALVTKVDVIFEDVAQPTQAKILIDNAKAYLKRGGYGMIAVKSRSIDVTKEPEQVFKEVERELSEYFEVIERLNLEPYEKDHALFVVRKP
The data set is described as follows: SEC-MALS; RNP assembled with archaeal guide RNA sR26, Snu13 and Nop5_(2)–Fib2; Superdex S200 Increase 10/300 GL, miniDawn TREOS, Optilab T-rex; the guide RNA is part of the particle; monomeric and dimeric RNP peaks partially overlapped. As to conditions: both partners purified.

The target in data set [3] is T1, Nop5_(2)–Fib2 complex from Pyrococcus …. Put plainly: SEC-MALS; RNP assembled with yeast guide RNA snR51, Snu13 and Nop5_(2)–Fib2; Superdex S200 Increase 10/300 GL, miniDawn TREOS, Optilab T-rex; the guide RNA is part of the particle. As to conditions: both partners purified.
Data set [4] has as its target B1. The data set is described as follows: SEC; Nop5 and fibrillarin mixed 1:1.1, 15 min at 80 °C, cooled to room temperature; Superdex S200 Increase 10/300 GL; 20 mM sodium phosphate, 500 mM NaCl, pH 6.6. As to conditions: both partners purified.

Turning to B1, in data set [1], the binding result is reported as “binds”.

B2: Snu13 from Saccharomyces cerevisiae (natural protein, S. cerevisiae, UniProt P39990 1-126, looked up)
chain: MSAPNPKAFPLADAALTQQILDVVQQAANLRQLKKGANEATKTLNRGISEFIIMAADCEPIEILLHLPLLCEDKNVPYVFVPSRVALGRACGVSRPVIAASITTNDASAIKTQIYAVKDKIETLLI
notes: Snu13, S. cerevisiae, full-length SNU13 gene, codon-optimised synthetic gene, UniProtKB P39990; Cloned into pET-M11 with a TEV-cleavable N-terminal His6-Tag; also called Sc Snu13; source: E. coli BL21 (DE3), purified (HisTrap, QTrap flow-through, TEV cleavage, reverse HisTrap); not shown: His6, N-terminal, cleaved
Turning to B2, the “stoichiometry N” value in data set [2] was 2 copies per Nop5_(2)–Fib2 tetramer; in data set [3] it was 1 copies per Nop5_(2)–Fib2 tetramer.

B3: fibrillarin from Pyrococcus furiosus (enzyme, P. furiosus, UniProt Q8U4M2 1-227, looked up)
chain: MVEVKKHKFPGVYVVIDDDGSEKIATKNLVPGQRVYGERVIKWEGEEYRIWNPHRSKLGAAIVNGLKNFPIKPGKSVLYLGIASGTTASHVSDIVGWEGKIYGIEFSPRVLRELVPIVEERRNIIPILGDATKPEEYRALVTKVDVIFEDVAQPTQAKILIDNAKAYLKRGGYGMIAVKSRSIDVTKEPEQVFKEVERELSEYFEVIERLNLEPYEKDHALFVVRKP
notes: fibrillarin, Pyrococcus furiosus, full-length gene amplified from genomic DNA, UniProtKB Q8U4M2; Cloned into pET-M11 with a TEV-cleavable N-terminal His6-Tag; source: E. coli BL21(DE3), purified (heat step at 80 °C, HisTrap, TEV cleavage, reverse HisTrap); not shown: His6, N-terminal, cleaved
As to B3, the binding result in data set [4] is recorded as “binds”.
